# Assay: soluble on expression in E. coli; label from the status in PepcDB or PDB records
row,Sequence,soluble on expression in E. coli
1,MGSDKIHHHHHHMATRSATQPVSPQVARLARGLKLGANSMLVTLFGDVVAPRPQALWLGSLIRLAEPFGINDRLVRTATFRLTSDDWLNATRIGRRSYYGLSEAGLQRCLHAGKRIYAGDAPDWDGRWTLALVRGDARATIRQRLKRELLWEGFGAIAPGVYAHPNADANSLGEIIRAAHAQDFVAVMDATSLETFSIRPLQTLMHQTFKLGDVASAWQALLRRFSPVLADAHAMTPADAFFVRTLLLHEYRRVLLRDPNLPEQLLPTDWPGRTARDLCRDMYAALLDASEDYLREVVEVSEGTLANATRLLRRRFAMA,not soluble
2,MTRIAIALAQDFADWEPALLAAAARSYLGVEIVHATPDGMPVTSMGGLKVTPDTSYDALDPVDIDALVIPGGLSWEKGTAADLGGLVKRFRDRDRLVAGICAAASALGGTGVLNDVAHTGNALASHKAYPAYRGEAHYRDQPRAVSDGGVVTAAGSAPVSFAVEILKSLGLFGPEAEAELQIFAAEHR,soluble
3,MREETFPGDIAQYFSVIHRAFLKDTKGEYAKYDLNPTNAYILLYLFFNKNSSQSELAQKLVINKGQITRETTKLLSLNFISKEISSKNRTTNVIAISSDGKKVIKKIIDIRNQWWEEKLKLSGVKTNSEFLDSLKKLESILN,not soluble
4,GPGSMSQLWVKRAKAEMTRHSRVLETINRVFPMPFEERRSRVGMTSYATYRWLRYFPVILVPVVVMGTLLETRDNPQEHVFTSLHLWLADHGVFRHDTVKALNPAFEDERRSIEWKANDRKWRFTGTDMPSEREIREFAAINIDHQSRRQL,soluble
5,MWPAIIQQLSEQLGKDFHLVEKEKVHGGDINECFMVSDGIDRYFVKTNQREYLTKFTAEVENLRVMRESNTVQVPEYILHGTSKTHAYLVLNYLATKPLDDAERSYEFGVQLANLHRWGEQKEFGFDIDNYIGATVQPNPWHKKWALFFAEQRIGWQLQLMQEKGVNLTNINEFVEMVKTRLANHSPRPSLLHGDLWFGNVANIVNGPLCFDPACYWGDRECDIALAEWFGGFQPEFFQGYESVWPLDWGYEERKDIYNLYHVLNHYNQFGGHYLDEAQKLIEKILSYLEHHHHHH,not soluble
6,MNQEQNDIAIRVSNLSKCYHIYDTPRDRLKQFILPRLHHLTGQTPRQYFREFWALRDVSFEVKKGETIGIIGRNGSGKSTLLQMICGTLNPTSGSITTYGRIAALLELGSGFNPEFTGRENVYMNASVLGLSQEETDARFDDIAAFADIGEFIEQPVKTYSSGMMVRLGFAVQAQVKPDILIVDEALAVGDAKFQAKCFDRLQQLKDGGTSILLVTHSSEQIVTHCSEAILLDGGDVIEHGEPRYVVNHYMDLLFGKERKSYSASAFSTESNSVEPTQDDNLSLNFIDDVFSSHANYNEHEYRWGDGTATILDFYLLTDNEPYPSVITSGQSVVLGVAVRFYEDLVRPILGITIKTKEGVTVYGVNSETLETDEIKVLGSKGTTALIKAEFICRLAPGDYFISLGLATRKGEEIVPHDRRYDAIYLQIAPVTKFFGLVDLGLKLSAQNTSLLEHHHHHH,soluble
7,MSLAMSKVKSITRESWILSTFPEWGSWLNEEIEQEQVAPGTFAMWWLGCTGIWLKSEGGTNVCVDFWCGTGKQSHGNPLMKQGHQMQRMAGVKKLQPNLRTTPFVLDPFAIRQIDAVLATHDHNDHIDVNVAAAVMQNCADDVPFIGPKTCVDLWIGWGVPKERCIVVKPGDVVKVKDIEIHALDAFDRTALITLPADQKAAGVLPDGMDDRAVNYLFKTPGGSLYHSGDSHYSNYYAKHGNEHQIDVALGSYGENPRGITDKMTSADMLRMGEALNAKVVIPFHHDIWSNFQADPQEIRVLWEMKKDRLKYGFKPFIWQVGGKFTWPLDKDNFEYHYPRGFDDCFTIEPDLPFKSFLEGGSHHHHHH,soluble
8,MKTQVVINAKIYTGQEVVENGFIRYAETIKEIGLMAQYVSQENETVLDAAGKIVIPGMIDVHIHGGYDIDAMDANSDGLVTLGKEMLKEGVTTYFPTTMTQAPEAIEAALHAAKEAKEKGAHFEYIHLEGPYVSKKRAGAQPLEHIVPANIEQFKQWQEASGNLIKLVTYAPEEEGALEFEQYLAETGVVGTMGHTDAIDAQLKNRNITHATHLYNQMRGLHHREPGVVGHVLLNPDVMVEVITDGIHIHPDMVKLAYKLKGPKKVSVITDAMRAKGLEDGLYELGGQPVHVKDGSARLEDGTLAGSILKMDQAFRNVIEFTGCSIEDAVLMTSVNQAEEFGLNNKGALAVGKDADFVVMNEDLHVYDTVRLGIHMKEGK,not soluble
9,MAHHHHHHMSSATPPLPADSVTASAALRFSVDFDPSRADSKPSVLLLTQNVGGIEAALGTDAGLGETSPECPHSPLPENGGDTSAAFASVPKDFRGPSYIHVPDDIDSELGVSPVVRQQVAEFLADLRQWLHRLSYMSAAVRAAEASATASSAAPASVAGGAPSPPPSPTPCGAAANTEAYMRSYTPSVRPPLIDMVVLHFQEIGGKYKNKHFNEYFKEQIRTSLLPEAGWTSGLLMDERESGDTLSSSSYQRHRATSTVQALRRTSFEGSSTSNNNGNANGHVGDAHRLSDANSNDTDLTAELDADADAYFTAIGSIVFLSPRFMGIASCLSVPHRTYIPIVDDPLTYAGEAGRLFHSGKFAEAGRSRKGFLLLSLRLGTVQFNVCNVHLFNDDDNRVALKSSPSLYTGRRTRAITEAIAECSAVVDLSEPLFIFGDYNVRMDGKSFTEWVEEKMQMTVRAERKRLRCPEQFWELFTNPATQQELRTRFDIEPQHLMDEVALLSSVELAEMPIQFAPTYSRVAYRTRTGATTTSAGADAAALRDVAATPDAQQQIPTLKDLAGRADAIRAEEQEQTEAIRARPSVSTLLAPLASPLASVPLTHVAASPYRDNFCHDRLPAWCDRVMFNVAGLEWISGDRSRTAPPQPQAASSVSGSAASGAGGLKGRQRSGQGCWYAYAAIDFIHMDHDGVFMLF,not soluble
10,MGSDKIHHHHHHMNIEGNIAIICITENGKKLALKINSLVNNCVIYQVKNKKSNLVVEETCVHTVQKKLSDFVGEIFSKFDYIVFIMATGIVVRSIAPYIISKFSDPAILVMDEKGKNVISLLSGHIGGANSLTQYISSLIDANPVITTATDINQKASLDMIAKKLNAHIDNFRESVKEVNSMLVNNKCVGLYVDEGYQVDTRGFKLIESKDELRDSFSNTYIEKLVVVSNKINCIEDIENLNLDNKFEHCYSTQKIIKVIPRDIVIGIGCRRNTDSELMYNSLEEFLNKQNIDIRAINTVGSIELKKDEKAIIELSKILKVPFKTFSVDEISKVDNLFDKSDFVKKNVGVYSVAEPVAYLLSKGNLLVEKHKYKGITFSVGRIKI,not soluble
11,AMAISDPEETLMDSTTATAELGWMVHPPSGWEEVSGYDENMNTIRTYQVCNVFESSQNNWLRTKFIRRRGAHRIHVEMKFSVRDCSSIPSVPGSCKETFNLYYYEADFDLATKTFPNWMENPWVKVDTIAADESISQVDLGGRVMKINTEVRSFGPVSRNGFYLAFQDYGGCMSLIAVRVFYRKCPR,soluble
12,MPISSSSARRAEPAPRPLAEFHPVVRQWFERHFAAPTPAQVEAWPAIREGLSTLVAAPTGSGKTLTAFLAAIDALVVEGLAAGGELADATQVVYVSPLKALSNDIRINLEQPLAGIREELARLGLPDVDIRSAVRTGDTPQVERGAMRKRPPHILVTTPESLYILLGSESGRQMLAGVRSVIVDEIHALAGSKRGSHLALSLERLQALCPRPLLRIGLSATQKPIEKVARFLVGASGNPRDPACRIVDVGYTRPRDLGIEVPPVALEAVMSNDTWELVYDRLAHLAGEHRTTLVFVNTRRMAERVTRFLAERLGSRQVAAHHGSLAKELRLDAEQRLKAGQLKVLVATASLELGIDIGDVELVCQLSSPRSIAAFLQRVGRSGHSVGGTPKGRLFPTSRDDLVECAALLDSVRRGELDSLVLPRQPLDVLAQQIVAEVACQEWREDDLYRLVIRAEPYAGLERERFDEVLRMLAEGYHSRLGVRGAYLHRDALNGLLRGRRGARLTALTSGGTIPDTGDYSVLLEPQGLLVGTVNEDFAVESLAGDVFQLGNTSYRIIRIEPGRVRVEDAQGQPPNIPFWLGEAPGRSDELSASVARLRDTLDELLGEGQALPEGRRLEPAIAWLGATLGLDDGAARQIVEYLARARQALGGLPGSRRLVLERFFDESGGMQLIIHSPHGSRLNRAWGLALRKRFCRSFNFELQAAATEDAIILSLSTSHSFPLDEVWRYLHSASAEHLLVQAVLDAPLFGVRWRWNLTTSLGLPRYAGGRKVPPQLLRMKSEDLLASVFPDQVACLENIVGEREVPDHPLVAQTLDDCLHEAMDCEGWLALLRDMESGAVDLLARDLPAPSALAAEILTARPYAYLDDAPLEERRTQAVQNRRWSDPESADDLGALDLEAIEAVRGEAWPEASNADEMHEALNSLGFLTSGEAEANPGWGEWLAQLSEQRRAGRLDCAGSTLWLAAERLPAMRLVHPAAKVPDAFQAPRGYPPPDSAEAATVELTRARLGGFGPRTAGQLAADLGIGLADQQYALAALEREGYVLRGRFSPGATEEEWCERHLLARIHRYTVKRLRREIEPVERADFMRFLFDWQRLAPGTRGRGAESLATVVEQLEGFQAAAAAWESELLAARVADYASHWLDQLCRSGRIVWARLAGRSKAAGGPLRSAPIVLLPRRELGLWSVLQRDAPEPELSPRAARVLEVLREQGASFFDELSQDAHLLRSELENALGELVSVGRVNADSFAGLRTLLMPADKRSRQERRSRGLPGGMQDAGRWAPLRRAKAEEAGQRLPAEVLEHVARTLLRRYGVVAWRLLEREADWLPPWRELLRVYHRLEARGEIRGGRFIAGLAGEQFALAEAVGLLREVRKRPPDGAMLVVSAVDPLNLVGGLLPGERVPAVTGNRLLYRDGAPLAALVAGKVRMLAEVDGETAQQIRALLI,not soluble
13,MGSDKIHHHHHHMRTMVAVRLRNLVESDRERLLIWRNSPDVSAYMYSDHKIGHEEHDHWFDVARHDPRRRYWIIEADGEPVGLANLADIDLVHRRCAWAYYLASPKVRGLGVGSFVEFQIIEYVFNQLHLNKLWCEVLISNESVWRLHELYGFQREALFRQHVMKQGHEVDVIGLGLLASDWAARRDAMAERLCAKGYTIPDLTCRAA,not soluble
14,MSLNGKPAVFPEVKSIKITGNKALTTEEIREVMSTSTRNSFFGTGLFAGARRPFIADDFEKDISLIRKLYTFKGYFFADVEPTVKRSKNGDVSITIRIRENQPTLLDSLSYAGLDSIPENLRSRYLKKSLLKLQQIFSVEKLIEERDRTLDFFREHGYTFFHPDSIRITVDTLGLHAGVRFDISLPGRYAYGPVKVFVHDPLKKDNPAIAKTFVRDNVSVTIYGHQKFSPKVFSSAIAWKQGALTRQSLEQRTLENFGSTNLFSSISMQKDAARAGAIPITIDLDPAPKHQIEPKLLVDNRYGSLFVGGALSYENRNLFGAGQQLKLSTNYGRQLSSDTNVLSSLSADQYDKLIPYEFNIKADLVIPRLGKQGSYYNGTVEYAQSKLPVLLDSKRELIRATYSTRPTRVSKLDFDFFELEVARKDSLRGFQQLFKNDLAQNIGINPADPVAVNRGLDSLLQTRLNQTFRLRYSLSNREKSTRSKRSPIWNFSVTAEESGSLLWLIDKYIDKKSYAGFTDSDPQIFGTPYNQYVKLDTQLAVTKNLSPKRQVAARIALGWMSPYGKADTTPEDHRFYAGGSNSMRGWVFGTLGPGSCPNAAVSNFGADIKAELGLEYRIQFFKVFGQESGIALFTDAGNIWDRTGPYAFSLRSLTQDFAWDWGAGLRIGSPIGPFRFDFAWKLHDPANPQPWRFSQTKLTDFTFNFGIGETFEGHHHHHH,not soluble
